{
  "source": "paper PMC3152195",
  "target": "GST-fusion protein containing the UBA domain of Dsk2p (residues 328–373) (UniProt P48510)",
  "sequence (P48510 328-373)": "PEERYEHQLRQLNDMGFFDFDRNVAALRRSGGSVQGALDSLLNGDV",
  "experiment": "pull-down",
  "data": [
    {"substance": "endogenous GLUT4 in 3T3-L1 adipocytes (ubiquitinated) (from UniProt P14142 1-509) (natural protein)", "values": [
      {"measurement": "percent of total cellular GLUT4 pulled down by GST–UBA (taken as ubiquitinated)", "result": 0.1, "unit": "%"}
    ]}
  ]
}
